Test results reported in paper PMC9213253 (The Journal of Biological Chemistry, 2022).

Legend:
[1] = molecular target: AstC (ACIAD1284) (Acinetobacter baylyi, UniProt Q6FCQ2); conditions: 10 mM DAP; 5 mM 2-oxoglutarate; 200 μM PLP; 200 μM NAD+; pH 9.0; 25 °C
[2] = molecular target: Dat (ACIAD1210) (Acinetobacter baylyi, UniProt Q6FCX2); conditions: 10 mM DAP; 5 mM 2-oxoglutarate; 200 μM PLP; 200 μM NAD+; pH 9.0; 25 °C
[3] = substrate: NCCCN; assay: purified protein; conditions: 200 μM PLP
[4] = substrate: O=C(O)CCC(=O)C(=O)O; assay: purified protein; conditions: 4 mM GABA, 200 μM PLP, 5 mM NAD+, pH 9.0, 25 °C
[5] = substrate: NCCCC(=O)O; assay: purified protein; conditions: 500 μM 2-oxoglutarate, 200 μM PLP, 5 mM NAD+, pH 9.0, 25 °C
[6] = substrate: NCCC=O; assay: purified protein; conditions: pH 9.0, 25 °C
[7] = substrate: NC(=O)c1ccc[n+]([C@@H]2O[C@H](COP(=O)(O)OP(=O)(O)OC[C@H]3O[C@@H](n4cnc5c(N)ncnc54)[C@H](O)[C@@H]3O)[C@@H](O)[C@H]2O)c1; assay: purified protein; conditions: pH 9.0, 25 °C, varied: cofactor
[8] = substrate: NCC[C@H](N)C(=O)O; assay: purified protein; assay type: biochemical, Acinetobacter baylyi; conditions: 100 mM Tris-HCl pH 8.5, 200 μM PLP, 2.5 mM CaCl2, 25 °C
[9] = substrate: NC(=O)c1ccc[n+]([C@@H]2O[C@H](COP(=O)(O)OP(=O)(O)OC[C@H]3O[C@@H](n4cnc5c(N)ncnc54)[C@H](OP(=O)(O)O)[C@@H]3O)[C@@H](O)[C@H]2O)c1; assay: purified protein; conditions: pH 9.0, 25 °C, varied: cofactor
[10] = 500 μM 2-oxoglutarate, 5 mM NAD+, pH 9.0, 25 °C
[11] = 1 mM NAD+, BetB, 2.5 mM CaCl2, pH 9.0, 25 °C

Dat (ACIAD1210), sequence (Q6FCX2 1-456): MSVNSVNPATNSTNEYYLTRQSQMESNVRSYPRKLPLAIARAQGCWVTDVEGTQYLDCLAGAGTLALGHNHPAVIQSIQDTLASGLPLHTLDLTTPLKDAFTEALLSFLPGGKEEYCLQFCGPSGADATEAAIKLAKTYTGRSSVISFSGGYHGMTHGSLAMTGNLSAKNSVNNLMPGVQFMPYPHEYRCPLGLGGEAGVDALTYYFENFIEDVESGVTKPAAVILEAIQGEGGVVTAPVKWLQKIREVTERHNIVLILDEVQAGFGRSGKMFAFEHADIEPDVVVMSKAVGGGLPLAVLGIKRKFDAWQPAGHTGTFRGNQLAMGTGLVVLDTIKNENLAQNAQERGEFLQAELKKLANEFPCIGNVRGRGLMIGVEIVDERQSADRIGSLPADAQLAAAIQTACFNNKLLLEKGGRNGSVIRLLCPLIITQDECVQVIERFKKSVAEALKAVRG
AstC (ACIAD1284), sequence (Q6FCQ2 1-403): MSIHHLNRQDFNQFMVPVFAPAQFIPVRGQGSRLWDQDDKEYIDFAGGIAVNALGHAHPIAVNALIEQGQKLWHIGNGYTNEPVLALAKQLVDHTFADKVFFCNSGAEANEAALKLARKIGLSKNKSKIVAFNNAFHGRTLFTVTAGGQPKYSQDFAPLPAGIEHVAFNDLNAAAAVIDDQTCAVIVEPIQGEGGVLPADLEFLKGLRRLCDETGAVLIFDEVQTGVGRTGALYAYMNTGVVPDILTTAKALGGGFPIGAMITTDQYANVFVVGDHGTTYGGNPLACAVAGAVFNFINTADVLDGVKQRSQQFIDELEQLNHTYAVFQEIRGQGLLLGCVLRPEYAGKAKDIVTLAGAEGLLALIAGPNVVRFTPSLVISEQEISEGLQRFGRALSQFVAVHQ

NCCCN [DAP]
BetB-coupled assay, NADH at 340 nm (aminotransferase) [1]: activity of AstC and Dat was too low to determine their kinetic parameters
BetB-coupled assay, NADH at 340 nm (aminotransferase) [2]: activity of AstC and Dat was too low to determine their kinetic parameters

B1: GabT (ACIAD3446) (Acinetobacter baylyi ADP1) (protein)
chain: MDTKHSALNQRKQQATPRGVGVMCQWYADKAENATIWDAEGNTYIDFAGGIAVLNTGHRHPKVLAAVKAQLERFTHTAYQVTPYESYVALAERINELAPIAGPAKTTFFTTGAEAVENAVKIARCYTGRQGIITFGNGFHGRSFMTMAMTGKTAPYKRDFGLMPGGVFHARYPVESRGISVDDALESIENIFSEDVAPHDVAAIVLEPVQGEGGFNVVPADFLKRLRALCDKHGILLVADEVQTGFARTGKLYAMDHYETKADLITMAKSLGGGFPISGVVGRAEVMDAPNPGGLGGTYAGNPVAVAAAHAVIDAIQEEKLCERANELGAELVHVLKGLQQSTDQVITDIRALGSMVAAEFETAEQAKAVQNYAMQNGLLLLTCGKYGNVIRFLYPLTIPVEQFRSGLDILKQGVASLATDHTTQAIG
Km [3, 10]: 4356 ± 1014 µM
kcat [3, 10]: 0.22 s⁻¹
kcat/Km [3, 10]: 51 M⁻¹ s⁻¹
Km [4]: 58 ± 7 µM
kcat/Km [4]: 8300 M⁻¹ s⁻¹
Km [5]: 399 ± 40 µM
kcat [5]: 0.48 ± 0.021 s⁻¹
kcat/Km [5]: 1200 M⁻¹ s⁻¹

B2: AcoD (ACIAD2018) (Acinetobacter baylyi ADP1) (protein)
chain: MRYIDPNQPGSKVQFKAQYENFIGGQWVPPVKGEYFGNSSPVDGKVFTQIPRSSVEDIELALDAAHKAKADWNKASPTVRSNVLLKIADRLEENLELLAVAETWENGKPIRETLAADIPLAIDHFRYFAGCIRAQEGGISEIDEDTIAYHFHEPLGVVGQIIPWNFPILMAAWKLAPALAAGNCIVLKPAEQTPSSILVLAELIQDLLPPGVLNIVNGYGAEVGRPLATNPRISKIAFTGSTKVGQMIMQYATENIIPVTLELGGKSPNIFFEDILDKEDDYLEKTLEGFAMFALNQGEVCTCPSRALVQESIADKFLEMAVERVKRIKTGHPLDTETMIGAQASKQQFDKILGCIDTGRNEGAQLLTGGDARHDVDGGFYIEPTIFKGNNSMKIFQEEIFGPVLSVTTFKDFDDAMRIANDTIYGLGAGVWSRSAHTSYRAGRAIEAGRVWTNCYHLYPAHAAFGGYKQSGIGRENHRMMLDHYQQTKNLLVSYSTKPMGFF
Km ([6]; 2 mM NAD+): 3559 ± 755 µM
kcat ([6]; 2 mM NAD+): 1.55 ± 0.35 s⁻¹
kcat/Km ([6]; 2 mM NAD+): 440 M⁻¹ s⁻¹
Km ([7]; 20 mM 3AP): 124 ± 49 µM
kcat/Km ([7]; 20 mM 3AP): 13000 M⁻¹ s⁻¹

B3: Ddc (ACIAD1211) (Acinetobacter baylyi ADP1) (protein)
chain: MVDFAEHRKALLCNDAASIAEYQSAMDEAVKAVAAWLQNDKMYTGGSIKELRSAIAFNPSKEGLGLHQSLGRMVELFLNKSLKVHHPYSLAHLHCPTMVTSQIAEVLINATNQSMDSWDQSPAGSLMEVQLIDWLRQKVGYGVGQAGVFTSGGTQSNLMGVLLARDWAIAKNFTDENGQPWSVQRDGIPAEAMRNIKVICSENAHFSVQKNMAMMGMGFQSVVTVPVNENAQMDVDALEKTMSHLQSEGKIVACVVATAGTTDAGAIDPLKKIREITTKYGAWMHIDAAWGGALILSNDYRDMLDGIELSDSITLDFHKHYFQSISCGAFLLKDEANYRFMHYEAEYLNSAYDEEHGVPNLVSKSLQTTRRFDALKLWMTVEALGEELYGSMIDHGVKLTREVADYIKATEGLELLVEPQFASVLFRVVPDGYPVELIDTLNQNVADELFARGDANIGVTKVGAVQSLKMTTLSPVATLENVKGLLAMVLAESDRIKDSIAAGTYVPAID
Km [8]: 1585 ± 257 µM
kcat [8]: 12.1 ± 1.1 s⁻¹
kcat/Km [8]: 7600 M⁻¹ s⁻¹
Km [3, 11]: 710 ± 113 µM
kcat [3, 11]: 0.009 s⁻¹
kcat/Km [3, 11]: 13 M⁻¹ s⁻¹

B4: BetB (ACIAD1009) (Acinetobacter baylyi ADP1) (protein)
chain: MSDVKLHRLYIHGQYTDATSGKTFDSINPATGEVIATIQQASQTDIEAAVKSAAEGQKVWAAKTAVERSRILRRAVDILRERNDELAQLETLDTGKAFSETSTVDIVTGADVLEYYAGLATAIQGEQVPLRESSFFYTRREPLGVVAGIGAWNYPIQIALWKSAPALAAGNAMIFKPSEVTPLTAFKLAEIYSEAGLPAGVFNVVQGAGREIGQWLTEHAVIEKISFTGGVETGKKVMASAAGSTLKEVTMELGGKSPLIICEDANLDRAADIAVMANFFSSGQVCTNGTRVFIPQRLKAAFEQAVVERVKRIRMGDPQHTDTNFGPLVSFPHMEKVLSYIESGKQQGAKVLIGGERATTGLLAQGAYVQPTVFTDCHDDMKIVQEEIFGPVMSILTYDTIEEAIERANNTNFGLAAGVVTQNISQAHQIIHQLEAGICWINTWGESPAEMPVGGYKESGVGRENGISTLNHYTRTKSIQVELGDYQSVF
Km ([6]; 2 mM NAD+): 82 ± 17 µM
kcat ([6]; 2 mM NAD+): 1.48 ± 0.16 s⁻¹
kcat/Km ([6]; 2 mM NAD+): 18000 M⁻¹ s⁻¹
Km ([7]; 2.5 mM 3AP): 20 ± 4 µM
kcat/Km ([7]; 2.5 mM 3AP): 74000 M⁻¹ s⁻¹
Km ([9]; 2.5 mM 3AP): 339 ± 67 µM
kcat ([9]; 2.5 mM 3AP): 2.43 ± 0.12 s⁻¹
kcat/Km ([9]; 2.5 mM 3AP): 7200 M⁻¹ s⁻¹

B5: AdhA (ACIAD3339) (Acinetobacter baylyi ADP1) (protein)
chain: MGSLMKAAVVTAFNQPLEIKDVEIPKVTSGKVLVKMIATGVCHTDLHAMHGDWPIKPSLPFIPGHEGVGEVVEIGEGITHLKIGDTVGVPWLYSACGHCDHCYAGWETLCKQQQNSGYSVNGSFAEYCLADGEYVGVIPEGVDLLEIAPILCAGVTVYKGLKMTEAKTGDWVAISGIGGLGHVAVQYAKTMGFNVVAIDVDDSKLELAKQLGADVGINALKVDVKEEVLKATGEGCHGVLVTAVSPKAFEQAVSVVRRGGTMVLNGLPPGKFDLSIFDMVLDGITVRGSIVGTRLDLKEALDIAARGKVKAHISVEPLENINDIFERMEQGKIDGRIVIDLKL
Km ([6]; 9 mM NAD+): 141 ± 28 µM
Km ([7]; 2 mM 3AP): 1803 ± 305 µM
kcat/Km ([7]; 2 mM 3AP): 520 M⁻¹ s⁻¹

B6: GabD-like (ACIAD0960) (Acinetobacter baylyi ADP1) (protein)
chain: MAYATVNPYTGETLKEFPFATEQEVKAAIDAGYTAFTTWKDSSFATRAEVLNKAAKILRDKTDYYAKFLTLEMGKLFKEAQGEVEICAQIFEYYAKHAEELLAPTKLSTANKEINATIYYEPQGIVMAVEPWNFPFYQIARILSAQLAAGNTVILKHASIVPQSANAFEQLLLDAGLPQGAFKNLYMQHEHIPLVLNDHRVCGVALTGSEGAGAEVAAHAGKALKKSTLELGGSDAFIVLKDADLEKTAQLAVSGRHSNAGQVCTASKRFIVVDEVYDQFVELYKQGVAKLKAGDPMDPDTTLAPLCSQDAADQLKKQVEKAKAAGATVEAIGAPVPEQGAFFQPLLMTDIQEDNEARYWEFFGPVTQLYRAKDEADAIRIANDSPFGLGGSVYTADHARGVEVAKQIHTGMVYINHPTTSQADLPFGGVGRSGYGRELIDLGLKEFVNHKLIAITDIDAKL
Km ([7]; 15 mM 3AP): 4507 ± 363 µM
kcat ([7]; 15 mM 3AP): 1.68 ± 0.04 s⁻¹
kcat/Km ([7]; 15 mM 3AP): 370 M⁻¹ s⁻¹
Km ([9]; 15 mM 3AP): 3718 ± 1138 µM
kcat/Km ([9]; 15 mM 3AP): 1000 M⁻¹ s⁻¹
